Laboratory results taken from publication PMC3111433.

Biological target: Francisella tularensis subsp. holarctica LVS 2-C-methyl-D-erythritol 4-phosphate cytidylyltransferase (Francisella tularensis subsp. holarctica LVS)
Assay: SEC

Francisella tularensis subsp. holarctica LVS 2-C-methyl-D-erythritol 4-phosphate cytidylyltransferase (enzyme)
stoichiometry N: 2
